Laboratory results published in publication PMC9949273 (The Journal of Cell Biology, 2023).

B1: GST-tagged ATL3 (natural protein, human, UniProt Q6DD88 1-541, looked up)
chain: MLSPQRVAAAASRGADDAMESSKPGPVQVVLVQKDQHSFELDEKALASILLQDHIRDLDVVVVSVAGAFRKGKSFILDFMLRYLYSQKESGHSNWLGDPEEPLTGFSWRGGSDPETTGIQIWSEVFTVEKPGGKKVAVVLMDTQGAFDSQSTVKDCATIFALSTMTSSVQIYNLSQNIQEDDLQQLQLFTEYGRLAMDEIFQKPFQTLMFLVRDWSFPYEYSYGLQGGMAFLDKRLQVKEHQHEEIQNVRNHIHSCFSDVTCFLLPHPGLQVATSPDFDGKLKDIAGEFKEQLQALIPYVLNPSKLMEKEINGSKVTCRGLLEYFKAYIKIYQGEDLPHPKSMLQATAEANNLAAAASAKDIYYNNMEEVCGGEKPYLSPDILEEKHCEFKQLALDHFKKTKKMGGKDFSFRYQQELEEEIKELYENFCKHNGSKNVFSTFRTPAVLFTGIVALYIASGLTGFIGLEVVAQLFNCMVGLLLIALLTWGYIRYSGQYRELGGAIDFGAAYVLEQASSHIGNSTQATVRDAVVGRPSMDKKAQ
B2: His6-tagged N-terminal cytoplasmic domain of ATL2 (1–480) (domain or fragment, human, UniProt Q8NHH9 1-480, looked up)
chain: MAEGDEAARGQQPHQGLWRRRRTSDPSAAVNHVSSTTSLGENYEDDDLVNSDEVMKKPCPVQIVLAHEDDHNFELDEEALEQILLQEHIRDLNIVVVSVAGAFRKGKSFLLDFMLRYMYNKDSQSWIGGNNEPLTGFTWRGGCERETTGIQVWNEVFVIDRPNGTKVAVLLMDTQGAFDSQSTIKDCATVFALSTMTSSVQVYNLSQNIQEDDLQHLQLFTEYGRLAMEEIYQKPFQTLMFLIRDWSYPYEHSYGLEGGKQFLEKRLQVKQNQHEELQNVRKHIHNCFSNLGCFLLPHPGLKVATNPSFDGRLKDIDEDFKRELRNLVPLLLAPENLVEKEISGSKVTCRDLVEYFKAYIKIYQGEELPHPKSMLQATAEANNLAAVAGARDTYCKSMEQVCGGDKPYIAPSDLERKHLDLKEVAIKQFRSVKKMGGDEFCRRYQDQLEAEIEETYANFIKHNDGKNIFYAARTPATLFA

Columns and labels:
[1] = molecular target: ATL2-1 (major splice isoform of ATL2) (human, UniProt Q8NHH9 1-583); assay: cross-linking
[2] = molecular target: B1; assay: pull-down

Binder | binding result [1] | binding result [2]
B1 | binds | –
B2 | – | binds
